For assay [1], the target named is T1, recombinant his-tagged homotrimeric SARS-CoV-2 spike protein (SARS-CoV-2, UniProt P0DTC2 16-1211). Description: flow cytometry, blocking of binding to hACE-2 cells.
In assay [2] the target is T2, recombinant monomeric SARS-CoV-2 S1 protein, his-tagged (SARS-CoV-2, UniProt P0DTC2 16-681).
T2 construct: domain: S1
The assay is described as above.

In assay [3] the target is T3, SARS-CoV spike RBD (R306-F527), C-terminal 6-His (SARS-CoV, UniProt P59594 306-527). Description: antigen-down ELISA, coated SARS-CoV-1 S1 RBD titrated, Ab 1 µg/mL. (An ELISA detects its analyte on a solid surface through an enzyme-linked reagent.)
The target of assay [4] is T1, recombinant his-tagged homotrimeric …. Description: flow cytometry, blocking of binding to hACE-2 cells. The source holds these as a separate data set. For orientation: A flow cytometer gives signals particle by particle.
Assay [5] deals with T2, recombinant monomeric SARS-CoV-2 S1 …. The description is as above. The source holds these as a separate data set.
The target of assay [6] is T3, SARS-CoV spike RBD (R306-F527), …. The assay is described as above.
For assay [7], the target named is T4, recombinant monomeric SARS-CoV-1 S1 protein (SARS-CoV-1, UniProt P59594 14-667). The description is as above.
The target of assay [8] is T4, recombinant monomeric SARS-CoV-1 S1 …. Kind of assay: antigen-down ELISA, coated SARS-CoV-1 S1 titrated, Ab 1 µg/mL.
Assay [9] deals with T3, SARS-CoV spike RBD (R306-F527), …. Description: flow cytometry, blocking of binding to hACE-2 cells. This is another data set of the same source.
Assay [10] concerns the target T4, recombinant monomeric SARS-CoV-1 S1 …. The assay is described as above. The source holds these as a separate data set.
The target of assay [11] is T5, BSA (bovine, UniProt P02769).
T5 construct: also called bovine serum albumin
Kind of assay: dipstick, adsorbed protein spots, Ab 10 µg/mL, GAM-AuNP.

Assay [12] deals with T3, SARS-CoV spike RBD (R306-F527), …. Description: antigen-down ELISA, coated SARS-CoV-1 S1 RBD titrated, Ab 1 µg/mL. This is another data set of the same source.
Assay [13] addresses T4, recombinant monomeric SARS-CoV-1 S1 …. Kind of assay: antigen-down ELISA, coated SARS-CoV-1 S1 titrated, Ab 1 µg/mL. The source holds these as a separate data set.
Assay [14] has the same target. The assay is described as above. The source holds these as a separate data set.
In assay [15] the target is T3, SARS-CoV spike RBD (R306-F527), …. Description: antigen-down ELISA, coated SARS-CoV-1 S1 RBD titrated, Ab 1 µg/mL. This is another data set of the same source.
Assay [16] concerns the target T5, BSA. Kind of assay: dipstick, adsorbed protein spots, Ab 10 µg/mL, GAM-AuNP. This is another data set of the same source.
Assay [17] deals with T3, SARS-CoV spike RBD (R306-F527), …. Description: lateral flow NC50, RBD-AuNP vs immobilised ACE2.
For assay [18] the target is unchanged. Description: antigen-down ELISA, coated SARS-CoV-1 S1 RBD titrated, Ab 1 µg/mL. The source holds these as a separate data set.
For assay [19], the target named is T4, recombinant monomeric SARS-CoV-1 S1 …. Description: antigen-down ELISA, coated SARS-CoV-1 S1 titrated, Ab 1 µg/mL. This is another data set of the same source.
The target in assay [20] is T5, BSA. Kind of assay: dipstick, adsorbed protein spots, Ab 10 µg/mL, GAM-AuNP. This is another data set of the same source.
The target of assay [21] is T3, SARS-CoV spike RBD (R306-F527), …. Description: antigen-down ELISA, coated SARS-CoV-1 S1 RBD titrated, Ab 1 µg/mL. The source holds these as a separate data set.
Assay [22] concerns the target T4, recombinant monomeric SARS-CoV-1 S1 …. Description: antigen-down ELISA, coated SARS-CoV-1 S1 titrated, Ab 1 µg/mL. The source holds these as a separate data set.

Percent blocking, binding result and IC50 data for six molecules are collected here from US20230408517A1 (BIO TECHNE, published 2023).

Like-named read-outs stand apart in the source and are kept apart here.

What is called IC50 is the concentration needed to halve the response being measured. A high value points to weaker potency in that assay.

T5 sequence (P02769 25-607 limits assumed): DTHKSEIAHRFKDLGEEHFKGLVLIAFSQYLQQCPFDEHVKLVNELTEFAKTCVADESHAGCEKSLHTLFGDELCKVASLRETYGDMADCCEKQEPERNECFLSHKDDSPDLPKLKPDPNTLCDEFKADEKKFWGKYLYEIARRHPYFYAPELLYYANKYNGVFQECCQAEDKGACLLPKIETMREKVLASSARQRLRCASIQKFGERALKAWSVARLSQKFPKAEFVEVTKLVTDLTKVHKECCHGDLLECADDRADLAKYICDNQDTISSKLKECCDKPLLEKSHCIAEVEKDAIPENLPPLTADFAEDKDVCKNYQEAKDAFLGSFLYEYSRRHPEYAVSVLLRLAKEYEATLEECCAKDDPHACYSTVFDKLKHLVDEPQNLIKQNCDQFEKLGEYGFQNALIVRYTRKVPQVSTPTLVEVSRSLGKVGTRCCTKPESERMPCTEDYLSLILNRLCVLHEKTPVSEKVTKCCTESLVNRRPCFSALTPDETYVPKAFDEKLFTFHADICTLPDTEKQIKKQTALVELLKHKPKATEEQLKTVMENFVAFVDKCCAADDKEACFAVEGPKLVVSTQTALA

B1: 1035211 (antibody, V domains shown)
VH: QVQLQQSGAELARPGASVKMSCKASGYTFTNYTMHWVKQRPGQGLEWIGYINPSSGYTNYNQKFKDKATLTADKSSSTAYMQLSSLTSEDSAVYYCARRNPLYAMDYWGQGTSVTVSS
VL: DIKMTQSPSSMYASLGERVTITCKASQDINSYLNWFQQKPGKSPKTLIYRANRLVDGVPSRFSGSGSGQDYSLTISSLEFEDMGIYYCLQYDEFPYTFGGGTKLEIK
As for B1, the percent blocking in [1] worked out at 78.6%; in [2], 88.7%; in [4], 78.6%; in assay [5] it was 88.7%; in assay [6], 0.1%; in assay [7] it was 0%. Moreover, the percent blocking in assay [9] is 0.1%; in assay [10], 0%. The binding result in assay [3] and in assay [8] was “no binding (tested: 400 ng coated (axis))” in each case.

B2: 1035753 (antibody, V domains shown)
VH: EVQLQQSGAELVRPGALVKLSCKASGFNIKDYYMHWVKQRPEQGLEWIGWIDPENGNTIYDPKFLGKASITADTSSNTAYLQLSSLTSEDTAVYYCARWYYYAMDSWGQGTSVTVSS
VL: DIQMTQTTSSLSASLGDRVTISCSASQGISNYLNWYQQKPDGTVKLLIYYTSSLHSGVPSRFSGSGSGTDYSLTISNLEPEDIATYYCQQYSKLPFTFGGGTNLEMK
For B2, the binding result in [11] is recorded as “no binding (tested: 10 µg/mL)”; in assay [12], “no binding (tested: 400 ng coated (axis))”; in assay [13], “no binding (tested: 400 ng coated (axis))”. In addition, the percent blocking was 96.6% in [1]; 94% in assay [2]; 96.6% in assay [4]; 94% in assay [5]; 0% in [6]; 0% in [7]. The percent blocking in [9] and in [10] was 0% throughout.

B3: 1035752 (antibody, V domains shown)
VH: QVQLQQPGAELVRPGASVKMSCKASGYTFTSHSIHWVKQTPGQGLEWIGAVYPGNGDTSYYQKFKGKATLTADKSSSTAYMHLSSLTSEDSAVYYCARDGYSDYYAMDCWGQGTSVTVSS
VL: DIVMTQSQKFMSTSVGDRVSVTCKASQNVGTNVAWYQQKPGQSPKALIYSASYRYSGVPDRFTGSGSGTDFTLTINNVQSEDLAEYFCQQYNRYPWTFGGGTKLEIK
As for B3, the binding result in [14] and in assay [15] was “no binding (tested: 400 ng coated (axis))” throughout. Moreover, the percent blocking in assay [1] was found to be 91.8%; in assay [2], 93.3%; in assay [4], 91.8%; in assay [5] it was 93.3%; in [6] it was 0%; in assay [7] it was 0%. The percent blocking in assay [9] and in assay [10] was 0% throughout.

B4: 1035740 (antibody, V domains shown)
VH: EVLLQQSGPELVKPGASVKIPCKASGYTFTDYNMDWVKQSHGKSLEWIGDINPNNGFTIYNQKFKGKATLTVDKSSSTAYMELRSLTSEDTAVYYCAREGYGNYFDYWGQGTTLTVSS
VL: DVLLTQSPAILSVSPGERVSFSCRASQSIGTSLHWYQQRTNGSPRLLIKYVSESISGIPSRFSGSGSGTDFTLSINSVESEDIADYYCQQSSSWPTTFGAGTKLELK
With B4, the binding result in [16] is listed as “no binding (tested: 10 µg/mL)”. In addition, 0.84 µg/mL corresponded to half-maximal inhibition in assay [17] (IC50). Moreover, the percent blocking in [1] was found to be 96.5%; in assay [2], 93.4%; in assay [4] it was 96.5%; in assay [5], 93.4%; in assay [6] it was 98.8%; in assay [7], 92.4%. Also, the percent blocking was 98.8% in assay [9] and 92.4% in assay [10].

B5: 1035755 (antibody, V domains shown)
VH: EVQLQQSGAELVRPGALVKLSCKASGFNIKDYYMHWVKQRPEQGLEWIGWIDPENGNSIYDPKFQGKASITADTSSNTAYLQLSSLTSEDTAVYYCATPSATSYFDYWGQGTTLTVSS
VL: QIVLTQSPAIMSASPGEKVTISCSASSSVSYMYWYQQKPGSSPKPWIYRTSNLASGVPARFSGSGSGTSYSLTISSMEAEDAATYYCQQYHSYPYMYTFGGGTKLEIK
As for B5, the binding result in assay [18] and in assay [19] was “no binding (tested: 400 ng coated (axis))” each time. For the same molecule, the percent blocking was found to be 84.6% in assay [1]; 93.3% in assay [2]; 84.6% in [4]; 93.3% in assay [5]; 0% in [6]; 1.3% in [7]. The percent blocking in assay [9] came out at 0%; in [10] it was 1.3%.

B6: 1035709 (antibody, V domains shown)
VH: EVQLQQSGPELVKPGASVKISCKTSGYTFTEYTMHWVKQSHGKSLEWIGGINPNIVDTGYNQKFKGKATLTVDKSSSTAYMELRSLTSEDSAVYYCARDGYPLYYAMDYWGQGTSVTVSS
VL: DIQMTQSPSSLSASLGERVSLTCRASQEISGYLSWLQQKPDGTIKRLIYAASTLDSGVPKRFSGSRSGSDYSLTISSLESEDFADYYCLQYASYPWTFGGGTKLEIK
Turning to B6, the binding result in assay [20] was “no binding (tested: 10 µg/mL)”; in [21], “no binding (tested: 400 ng coated (axis))”; in assay [22], “no binding (tested: 400 ng coated (axis))”. Besides, the percent blocking amounted to 96.5% in assay [1]; 93.6% in assay [2]; 96.5% in [4]; 93.6% in assay [5]; 0% in [6]; 0% in assay [7]. Further, the percent blocking in assay [9] and in assay [10] was 0% each time.
